Reference: patent publication US20040146507A1 (Genentech, published 2004)

Tests used:
rhesus CD11a [1] = biological target: T1, rhesus CD11a (rhesus, UniProt H9Z8N3 26-1169); assay: rhesus PBL binding
T1 construct: whole, on cells; On rhesus peripheral blood lymphocytes or leukocytes; also called rhCD11a
T1 sequence: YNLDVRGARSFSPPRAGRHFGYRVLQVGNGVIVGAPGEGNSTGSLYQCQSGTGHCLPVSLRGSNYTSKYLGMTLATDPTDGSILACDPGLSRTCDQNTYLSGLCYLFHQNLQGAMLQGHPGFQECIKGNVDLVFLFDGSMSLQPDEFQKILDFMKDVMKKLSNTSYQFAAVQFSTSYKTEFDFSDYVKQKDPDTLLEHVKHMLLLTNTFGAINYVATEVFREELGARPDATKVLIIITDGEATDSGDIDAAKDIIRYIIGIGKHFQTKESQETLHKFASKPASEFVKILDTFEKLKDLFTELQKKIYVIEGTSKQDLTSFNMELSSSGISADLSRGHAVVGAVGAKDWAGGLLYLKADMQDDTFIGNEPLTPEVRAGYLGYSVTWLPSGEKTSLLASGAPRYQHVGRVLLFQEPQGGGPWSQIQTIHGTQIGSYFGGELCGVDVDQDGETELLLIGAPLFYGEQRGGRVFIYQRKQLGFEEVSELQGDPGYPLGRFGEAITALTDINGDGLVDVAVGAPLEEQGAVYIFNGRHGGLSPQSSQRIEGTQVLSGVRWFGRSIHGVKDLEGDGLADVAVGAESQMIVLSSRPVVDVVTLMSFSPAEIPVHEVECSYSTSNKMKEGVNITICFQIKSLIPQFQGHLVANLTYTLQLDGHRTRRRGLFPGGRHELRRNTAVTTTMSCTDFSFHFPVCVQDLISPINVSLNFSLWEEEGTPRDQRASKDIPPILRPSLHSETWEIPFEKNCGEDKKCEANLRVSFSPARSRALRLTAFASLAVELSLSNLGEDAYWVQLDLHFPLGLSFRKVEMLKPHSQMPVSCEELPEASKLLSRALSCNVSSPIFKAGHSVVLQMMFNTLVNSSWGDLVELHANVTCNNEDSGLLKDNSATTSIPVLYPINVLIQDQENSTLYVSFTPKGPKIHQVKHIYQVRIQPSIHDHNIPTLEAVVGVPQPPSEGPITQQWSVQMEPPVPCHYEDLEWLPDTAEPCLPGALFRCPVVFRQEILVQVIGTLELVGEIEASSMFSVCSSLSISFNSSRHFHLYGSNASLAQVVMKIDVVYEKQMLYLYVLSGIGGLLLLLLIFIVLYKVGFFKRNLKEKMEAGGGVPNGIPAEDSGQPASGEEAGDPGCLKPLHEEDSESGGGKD

human CD11a [2] = biological target: T2, human CD11a (human, UniProt P20701 26-1170); assay: FACScan, Jurkat cells
T2 construct: whole, on cells; On Jurkat T-cells or human peripheral blood mononuclear cells, as part of LFA-1; also called CD11a on Jurkat cells; alpha subunit of LFA-1
Experimental: (§1) Aliquots of 10⁶ Jurkat T-cells were incubated with serial dilutions of humanized and control antibodies in PBS-0.1% BSA-10 mM sodium azide for 45 min at 4° C. The cells were washed and then incubated in fluorescein-conjugated goat anti-human F(ab′)₂ (Organon Teknika, Westchester, Pa.) for 45 min at 4° C. Cells were washed and analysed on a FACScan (Becton Dickinson, Mountain View, Calif.). 8×10³ cells were acquired by list mode and gated by forward light scatter versus side light scatter, thereby excluding dead cells and debris.
Target sequence in this assay (P20701 26-1170): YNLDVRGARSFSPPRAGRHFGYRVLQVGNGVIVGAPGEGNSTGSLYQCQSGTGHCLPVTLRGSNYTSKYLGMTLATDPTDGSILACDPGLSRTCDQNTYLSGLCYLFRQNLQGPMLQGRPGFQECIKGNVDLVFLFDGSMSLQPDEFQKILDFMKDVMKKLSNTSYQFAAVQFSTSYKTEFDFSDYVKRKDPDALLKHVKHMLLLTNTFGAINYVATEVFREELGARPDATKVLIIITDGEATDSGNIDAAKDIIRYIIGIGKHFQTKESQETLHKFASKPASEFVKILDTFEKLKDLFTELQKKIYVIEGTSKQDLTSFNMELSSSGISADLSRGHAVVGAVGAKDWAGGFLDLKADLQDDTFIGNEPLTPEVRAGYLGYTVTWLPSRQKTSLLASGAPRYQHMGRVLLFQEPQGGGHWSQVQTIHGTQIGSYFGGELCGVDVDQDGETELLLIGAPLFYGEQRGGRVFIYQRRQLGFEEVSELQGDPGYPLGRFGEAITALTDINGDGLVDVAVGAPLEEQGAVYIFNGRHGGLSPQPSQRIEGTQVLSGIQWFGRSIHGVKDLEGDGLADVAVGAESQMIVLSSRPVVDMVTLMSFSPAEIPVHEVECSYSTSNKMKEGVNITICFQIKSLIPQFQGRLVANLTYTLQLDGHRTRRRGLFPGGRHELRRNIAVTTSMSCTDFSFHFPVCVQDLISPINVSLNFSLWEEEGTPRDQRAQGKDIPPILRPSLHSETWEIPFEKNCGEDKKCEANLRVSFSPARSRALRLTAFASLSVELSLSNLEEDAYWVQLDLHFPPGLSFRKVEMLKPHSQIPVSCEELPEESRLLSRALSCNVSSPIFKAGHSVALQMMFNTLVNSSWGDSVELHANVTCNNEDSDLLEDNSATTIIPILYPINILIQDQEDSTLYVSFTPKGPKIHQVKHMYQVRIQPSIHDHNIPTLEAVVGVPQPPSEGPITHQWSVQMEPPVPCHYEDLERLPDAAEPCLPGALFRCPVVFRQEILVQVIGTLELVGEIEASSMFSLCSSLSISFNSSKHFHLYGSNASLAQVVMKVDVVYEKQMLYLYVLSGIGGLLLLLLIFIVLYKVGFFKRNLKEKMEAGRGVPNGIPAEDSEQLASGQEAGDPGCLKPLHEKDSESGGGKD

human CD11a [3] = biological target: T2, human CD11a; assay: FACScan, Jurkat cells; remark: listed apart in the source
Experimental: as §1
(§2) To determine which CDR residues were involved in binding to human CD11a an alanine-scan (Cunningham et al., Science 244:1081 (1989)) was performed on the CDR residues of HuIgG1. Each mutant was tested for binding to CD11a on Jurkat cells. In the light chain only CDR-L3 contributes to binding.

human CD11a [4] = biological target: T2, human CD11a; assay: FACScan, Jurkat cells; remark: listed apart in the source
Experimental: as §1, §2

human CD11a [5] = biological target: T2, human CD11a; assay: cell-based or functional assay
human CD11a [6] = biological target: T2, human CD11a; assay: cell-based or functional assay; remark: listed apart in the source
human CD11a [7] = biological target: T2, human CD11a; assay: not stated (summary of the Example)
rhesus CD11a [8] = biological target: T1, rhesus CD11a; assay: binding to rhesus CD11a compared with human CD11a
rhesus CD11a [9] = biological target: T1, rhesus CD11a; assay: binding to rhesus peripheral blood lymphocytes
human CD11a [10] = biological target: T2, human CD11a; assay: saturation binding, human lymphocytes, donor 1; Kd(app)
Experimental: (§3) Radiolabeled antibodies were prepared using Iodo-Gen (Pierce, Rockford, Ill.) according to the manufacturer's instructions. 50 μg of antibody and 1 mCi¹²⁵I (DuPont, Wilmington, Del.) were added to each tube and incubated for 15 min at 25° C. Radiolabeled proteins were purified from the remaining free ¹²⁵I using PD-10 columns (Pharmacia, Uppsala, Sweden) equilibrated in Hank's Balanced Salt Solution (HBSS, Life Technologies, Grand Island, N.Y.) containing 0.2% gelatin.
(§4) Antibody affinities were determined by saturation binding using either peripheral blood mononuclear cells (murine MHM24 and HuIgG1) or rhesus leukocytes (MHM23, RhIgG1). In each assay, a radiolabeled antibody was serially diluted in HBSS-0.2% gelatin in quadruplicate. Nonspecific binding was determined by the addition of 500 nM final concentration of homologous unlabeled antibody in duplicate through the serial dilution. Human lymphocytes or rhesus leukocytes were added to the plates in a volume of 170 μl per well. Plates were incubated for 2 hr at room temperature on an orbital plate shaker. After incubation, cells were harvested using a SKATRON™ cell harvester (Lier, Norway) and washed 10 times with PBS containing 0.25% gelatin and 0.1% sodium azide. Samples were then counted for 1 min in an LBK Wallac GammaMaster gamma counter (Gaithersburg, Md.). […]

human CD11a [11] = biological target: T2, human CD11a; assay: saturation binding, human lymphocytes, donor 2; Kd(app)
Experimental: as §3, §4

human CD11a [12] = biological target: T2, human CD11a; assay: saturation binding, 125I-antibody, human lymphocytes; Kd(app)
Experimental: as §3, §4

B1: humanized MHM24 IgG1 (antibody, V domains shown)
VH: EVQLVESGGGLVQPGGSLRLSCAASGYSFTGHWMNWVRQAPGKGLEWVGMIHPSDSETRYNQKFKDRFTISVDKSKNTLYLQMNSLRAEDTAVYYCARGIYFYGTTYFDYWGQGTLVTVSS
VL: DIQMTQSPSSLSASVGDRVTITCRASKTISKYLAWYQQKPGKAPKLLIYSGSTLQSGVPSRFSGSGSGTDFTLTISSLQPEDFATYYCQQHNEYPLTFGQGTKVEIKR
notes: F(ab)-8 VL and VH domains fused to human constant light and heavy (IgG1) chains; also called HuIgG1; huMHM24
Rhesus CD11a [1]
  Var.EC50/HuIgG1 EC50: 1 ratio
Human CD11a [2]
  EC50 F(ab)/EC50 F(ab)-2: 0.004 ratio
Human CD11a [3]
  EC50: 0.042 nM
Human CD11a [4]
  Var.EC50/HuIgG1 EC50: 1 ratio
Human CD11a [5]
  IC50, blocking of cell adhesion, Jurkat: HuK: 0.13 nM
Human CD11a [6]
  IC50, human mixed lymphocyte response: 0.38 nM
Human CD11a [7]
  Kd: 0.2 nM
Rhesus CD11a [8]
  fold reduction in binding against human CD11a: ~1000 fold
Rhesus CD11a [9]
  EC50: 45.6 nM
Human CD11a [10]
  Kd: 0.11 nM
Human CD11a [11]
  Kd: 0.18 nM
Human CD11a [12]
  Kd: 0.15 nM
